{"source": "patent US20230322893A1", "about": "“CD47 BINDER AND LIPOSOME COMPLEX FOR CANCER TREATMENT” (priority 2020, published 2023)", "target": "recombinant CD47 protein (Homo sapiens, UniProt Q08722)", "sequence (Q08722 19-323)": "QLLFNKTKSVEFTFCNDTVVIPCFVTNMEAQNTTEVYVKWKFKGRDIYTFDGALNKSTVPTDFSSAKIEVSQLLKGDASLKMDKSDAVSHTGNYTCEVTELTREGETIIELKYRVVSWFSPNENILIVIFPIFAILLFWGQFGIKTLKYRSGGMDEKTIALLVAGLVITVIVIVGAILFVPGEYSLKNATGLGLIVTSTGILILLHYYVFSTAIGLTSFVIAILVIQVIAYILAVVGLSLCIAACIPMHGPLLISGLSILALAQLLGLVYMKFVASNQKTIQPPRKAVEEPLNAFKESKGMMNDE", "experiment": "SPR, CD47 conjugated to CM5 chip by EDC-NHS", "type": "binding", "conditions": "CM5 chip, CD47 250 RU, 30 µL/minutes", "method": "Specifically, the recombinant CD47 protein was conjugated to the surface of the CM5 chip by a target SPR reaction of 250 RU through an EDC-NHS reaction to be used, and for HBS-P, the sensogram obtained through a process of association for 3 minutes and dissociation for 10 minutes at a flow rate of 30 µL/minutes was analyzed with the BiaEvaluation software using a 1:1 binding model and global fitting.", "data": [{"substance": "Sirpα: pure Sirpα (SEQ ID NO: 25), water-soluble domain of the original CD47 ligand [reference compound]", "values": [{"measurement": "ka", "value": 610000, "unit": "M⁻¹ s⁻¹"}, {"measurement": "kd", "value": 0.37, "unit": "s⁻¹"}]}]}
